These results are taken from paper PMC11721787 (Science translational medicine, 2023).

Test [1] has as its target PUUV Gn/Gc on virus-like particles (VLPs) (Puumala orthohantavirus, strain of the …, UniProt A0A0B4U5I0). Description: ELISA. Background: An ELISA detects its analyte on a solid surface through an enzyme-linked reagent.
The next test concerns the target PUUV Gn^H (head of Gn) (Puumala virus, UniProt P27312). Description: crystal structure.
For a further test, the target named is PUUV Gc ectodomain (Puumala virus, UniProt P27312). Description: crystal structure.
PUUV Gc ectodomain, sequence (P27312 659-1093): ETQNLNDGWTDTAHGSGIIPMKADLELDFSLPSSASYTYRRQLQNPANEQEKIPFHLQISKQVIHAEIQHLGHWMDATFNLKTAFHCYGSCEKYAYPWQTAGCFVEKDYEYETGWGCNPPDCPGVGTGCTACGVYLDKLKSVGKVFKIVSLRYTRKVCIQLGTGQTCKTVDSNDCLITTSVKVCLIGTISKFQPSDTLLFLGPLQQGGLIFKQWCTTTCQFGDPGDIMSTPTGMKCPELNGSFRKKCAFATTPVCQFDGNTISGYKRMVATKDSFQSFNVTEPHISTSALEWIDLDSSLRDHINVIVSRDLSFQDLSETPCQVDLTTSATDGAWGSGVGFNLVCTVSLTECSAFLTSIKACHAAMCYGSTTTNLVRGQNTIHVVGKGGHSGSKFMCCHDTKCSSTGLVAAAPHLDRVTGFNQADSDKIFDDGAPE

PUUV Gn^H (head of Gn), sequence (P27312 20-381): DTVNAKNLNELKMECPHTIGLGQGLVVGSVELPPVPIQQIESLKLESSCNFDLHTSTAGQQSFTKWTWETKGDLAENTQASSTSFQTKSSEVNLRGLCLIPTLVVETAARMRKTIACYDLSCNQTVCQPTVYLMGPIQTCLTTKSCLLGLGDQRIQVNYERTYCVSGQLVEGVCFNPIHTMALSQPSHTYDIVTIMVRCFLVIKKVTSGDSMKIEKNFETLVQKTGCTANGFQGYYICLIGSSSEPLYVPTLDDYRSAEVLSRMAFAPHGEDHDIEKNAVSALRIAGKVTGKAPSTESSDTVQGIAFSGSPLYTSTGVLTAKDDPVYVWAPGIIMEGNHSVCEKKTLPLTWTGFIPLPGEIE

B1: ADI-42898 monovalent antibody-binding fragment (Fab) (Fab, V domains shown)
VH: QVQLVESGGGVVQPGRSLRLSCAASGFTFSSYAMHWVRQAPGKGLEWVAVTWFDVSKKDYADSVKGRFTISRDNSKNTLYLQMNSLRAEDTAVYYCARNLIRYSGSYFPVHGMDVWGQGTTVTVSS
VL: DIVMTQSPLSLPVTPGEPASISCRSSQSLLHTYGYNCLDWYLQRPGQSPQLLISLGSYRASGVPDRFSGSGSGTDFTLKISRVEAEDVGVYYCMQALHPFTFGGGTKVEIK
Take B1: the binding result in test [1] is “binds”.

B2: ADI-42898 (monoclonal antibody, IgG) (antibody, V domains shown)
VH: B1 VH
VL: B1 VL
With B2, in test [1], the binding result was “binds”.

B3: ADI-42898 single-chain, variable domain fragment (scFv) (scFv, V domains shown)
VH: B1 VH
VL: B1 VL
B3: the binding result in the test with PUUV Gn^H (head of Gn) and with PUUV Gc ectodomain was “binds” each time.
